Where a chain is given by its changes, count along the chain named. Numbers in names are those of the source.
B1: PvuRts1I Y210F mutant (enzyme, UniProt Q52612 1-293, looked up)
chain: MSKTDYILRALSKISHKRWEHYIINRVVHTLDDPDIEFVCQQCIRKEGHLGKIYLADLLFPQLNLYLEIDEAHHDSNDARKADAVRRLDIVEATGFQEERIPASNITLSEVNKLVDEFVRLVKDKKEELENQGLFFRWDYDERYSAKKHINTGYMAVGPNSVFRYHRDALQCFGYRREGHHQSGGWALPAEVAQSIGLTGRVMVWFPRLFEAGEWKNALSADGNKITEQSLNATRNYQETWDYRIVMAHSRDELNRTLYRFLGVFAIDVDKSSDEVKVFSRVYSRVNVYRSQN
notes: PvuRts1I with a point mutation; also called Y210F variant; source: E. coli Rosetta2 (DE3), purified under identical conditions to wild-type PvuRts1I
B2: PvuRts1I N217D mutant (enzyme, UniProt Q52612 1-293, looked up)
chain: B1 chain with F210Y, N217D
notes: PvuRts1I with a point mutation; source: E. coli Rosetta2 (DE3), purified under identical conditions to wild-type PvuRts1I
B3: PvuRts1I A212N mutant (enzyme, UniProt Q52612 1-293, looked up)
chain: B1 chain with F210Y, A212N
notes: as for B2
B4: PvuRts1I N217K mutant (enzyme, UniProt Q52612 1-293, looked up)
chain: B1 chain with F210Y, N217K
notes: as for B2
B5: PvuRts1I N217A mutant (enzyme, UniProt Q52612 1-293, looked up)
chain: B1 chain with F210Y, N217A
notes: as for B2
B6: PvuRts1I W215A mutant (enzyme, UniProt Q52612 1-293, looked up)
chain: B1 chain with F210Y, W215A
notes: as for B2
B7: PvuRts1I E228K mutant (enzyme, UniProt Q52612 1-293, looked up)
chain: B1 chain with F210Y, E228K
notes: as for B2

Molecular target: the molecule itself
Assay: not stated; assembly of the purified point mutants in solution (Supplementary Fig. S3)

| Protein | stoichiometry N |
| --- | --- |
| B1 | 2 |
| B2 | 2 |
| B3 | 2 |
| B4 | 2 |
| B5 | 2 |
| B6 | 2 |
| B7 | 2 |

Source: PMC4157451 (Acta Crystallographica Section D: Biological Crystallography, 2014)
